This note sets out measurements from the supplement of paper PMC12042874.

± gives the uncertainty stated by the source.

The nature of this data set: amyloid nucleation score (Sup35N fusion, yeast selection) (log enrichment); library NNK1; higher = more nucleation; inactive = no reads after selection. Put shortly: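 Yeast lacking psi expressed peptides of 20 random codons fused to Sup35N, received 100 μM copper sulfate for 24 hours, and were then grown for 7 days at 30°C on medium lacking adenine and uracil. Illumina sequencing of input and output plasmid inserts provided the reads. Nucleation scores are DiMSum log enrichments of output over input, centred on the mode of non-aggregating sequences. Any sequence with under 100 input reads was excluded.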
With PFVDFVVSRNYLRL, the amyloid nucleation score stood at 0.572 ± 0.61.

PFYRNLFSWAGYILLCGCHE yielded an amyloid nucleation score of -0.775 ± 0.75. With PGFFWHICFG, the amyloid nucleation score is 4.55 ± 0.082. Regarding PGMNSRCCA, the amyloid nucleation score was determined as 0.48 ± 0.72.

Consider PGRIYGRSGCYRV, for which the amyloid nucleation score came out at 0.482 ± 0.69. The substance PGSGCNVFKL showed an amyloid nucleation score of -0.403 ± 0.25. With PHAHDTWYGYA, the amyloid nucleation score is -1.13 ± 2.4. PHVFRFSFPTLILIGSFNFC: the amyloid nucleation score turned out to be 3.14 ± 0.12. The substance PIDAPISQLGLCMFGYQEGL came in with an amyloid nucleation score of -0.999 ± 1.3. For the substance PIFMCHSFFQAIICWLSSHL, the amyloid nucleation score result was “inactive”. The substance PIKAPLGASCGFAVRVTRTM registered an amyloid nucleation score of 0.391 ± 0.46.

PKARYRFSWLTRYNLNNRRE registered an amyloid nucleation score of -0.608 ± 0.52. The value for PKATRIALPFFLGLCFSMCL was -0.143 ± 0.38. The value for PKGIGGGCARTYRHRVRGSR was 0.184 ± 0.64; that for PKNKAAVKNSMALPIARQ was -0.192 ± 0.73; that for PLAPMFRLWENSVRYIAKLW was 1.22 ± 0.64. Substance PLAVVVYDNHRRMGHHVRHG gave an amyloid nucleation score of 0.807 ± 0.63. PLCSNRIERMLLSVGCGRRR returned an amyloid nucleation score of -0.416 ± 0.44. Substance PLFLYRFCKMVPVCILRIGW showed an amyloid nucleation score of 0.415 ± 0.3.

As for PLKHVRQDWCTKLICNSGNY, the amyloid nucleation score was -0.357 ± 0.43. Regarding PLLERHVAGLCGFFF, the amyloid nucleation score was -0.908 ± 1.2. PLSRVLGYVFIISRRTNRIL: the amyloid nucleation score was -0.206 ± 0.28.

As to PLTGAGFTIEML, the amyloid nucleation score was -0.132 ± 0.36.

Substance PMICFGWALIRYVTFQDLPV had an amyloid nucleation score of 0.276 ± 0.45. As for PMNNIVFYGGYLISAFRVRL, the amyloid nucleation score was 6.46 ± 0.089. For the substance PMNYGSSNA, the amyloid nucleation score was -0.224 ± 1.7. On to PMSLPTYLRIPRFVLLAWAE, for which the amyloid nucleation score is -0.034 ± 0.39. As for PMVIKVLVGCRGYSDLNLYW, the amyloid nucleation score was determined as 4.9 ± 0.079.

In turn, PNLMLAFVL showed an amyloid nucleation score of 1.14 ± 0.41. The value for PNMARHPFYEDMCFTVDVTN was -1 ± 0.44; that for PNRSLCTVNMCIYVETGFMV was “inactive”; that for PNYDVMSLYRTNYGNYSHSV was 0.471 ± 0.38. The value for PPTGTLSRHVRSSVQGMGVA was “inactive”; that for PQQEGISLSDALPLPEEGRV was 0.535 ± 0.4; that for PRCFYLMSGEMISTYECKRT was 1.05 ± 0.39.

Consider PRMFIWMCDRDDVSMYQEFL, for which the amyloid nucleation score amounted to 0.48 ± 0.55. Consider PRRSY, for which the amyloid nucleation score stood at 1.41 ± 0.84.

PRSANCMCDYDRTAM: the amyloid nucleation score amounted to 0.316 ± 0.34.

As for PRTLPVLFNLSLKGSSHTYF, the amyloid nucleation score came to 4.52 ± 0.064. Consider PRYRASVYYKDTRVLLLF, for which the amyloid nucleation score was determined as 0.512 ± 0.36. For PSALGMVNGYIRVIYKRR, the amyloid nucleation score came to 0.359 ± 0.53. Substance PSILTVCLRV gave an amyloid nucleation score of 0.188 ± 0.41. In the case of PSLLWAFTLS it was 0.5 ± 0.42; in that of PSQRNKIPGMLSLYY, -0.193 ± 0.57; in that of PSTVCMFPRWLAVVRLVLQT, 0.79 ± 0.35. In the case of PSVTVYIYNLSSIFYGIRDL it was 6.71 ± 0.075; in that of PSYIHMVSGRFSFSSPRGQK, 0.029 ± 0.49.

Consider PTEKYAESLMERTYFRAEMK, for which the amyloid nucleation score is 0.315 ± 0.34. For the substance PTVYSDYTCSTFMWISD, the amyloid nucleation score was 0.299 ± 0.6. As for PTWSWWGSWHLGSMPGDNRR, the amyloid nucleation score was 0.237 ± 0.78. In the case of PVCWSHFYFRVDVFYEWGRV it was -0.274 ± 0.39; in that of PVGWGNTACSLRCTGHVSYV, -0.604 ± 1.7; in that of PVKVWARTVQSVAWLFSCG, -0.016 ± 1.4.

In turn, PVLLRSIIF registered an amyloid nucleation score of -0.346 ± 0.36. The value for PVLWT was -0.002 ± 0.53.

Consider PVRQLERSNRLLKQGRRPLG, for which the amyloid nucleation score was 0.512 ± 0.49. As to PVTSTIHRHPFFHVTTGDRM, the amyloid nucleation score was -1.32 ± 0.94. In the case of PVVDKLSDVHVM it was -0.262 ± 0.31.

PVVPCYPRLKVCTGRRTAGA gave an amyloid nucleation score of 0.684 ± 0.55.

For PWASNIAFLNFPTCTDCDG, the amyloid nucleation score came out at 2.09 ± 0.28. For PWLKVQFVKREVTIDFRVRV, the amyloid nucleation score result was “inactive”. PWYTSLEIKRSEETCKAMPF showed an amyloid nucleation score of 0.302 ± 0.41. For the substance PWYVIKV, the amyloid nucleation score is -0.055 ± 0.31.

For the substance PYFLNCRPLRA, the amyloid nucleation score is 0.815 ± 0.52.

Regarding PYFVIKSRWGQNRS, the amyloid nucleation score result is “inactive”. PYHIKLLQR had an amyloid nucleation score of 1.44 ± 0.18. The value for PYYHHVGVGYAFYVICVRAF was “inactive”; that for QAFFVFC was 1.3 ± 0.36.

In the case of QAKPIIGRRTPLNDFNSPLY, the amyloid nucleation score is 0.15 ± 0.37. Substance QASIYCIIRE yielded an amyloid nucleation score of 0.68 ± 0.43.

Regarding QASSGIDVNHFYAVNLTSML, the amyloid nucleation score turned out to be 0.487 ± 0.97. QAVRIVGERLAFFGN registered an amyloid nucleation score of 0.607 ± 0.65. Substance QCAWCTRSVNNMYQTLEYHI registered an amyloid nucleation score of 6.151 ± 0.049. The substance QCLRWDPGI displayed an amyloid nucleation score of 1 ± 0.51. The value for QDAIMFGSDPLFYILLGLWG was “inactive”; that for QDFVMSYLCRLKGWLDKRYR was 0.472 ± 0.25. The substance QDIQSISWHAFVVESFKSEK had an amyloid nucleation score of -0.094 ± 0.32. In the case of QDRENLNCIHY it was 1.24 ± 0.31; in that of QDVKSMCQPFMILMVVSGGL, -0.101 ± 0.65. QFDCPEHKRIHYRGPHPKRK: the amyloid nucleation score was -0.356 ± 0.33.

On to QFEDLHQLYSMCALPDSTKH, for which the amyloid nucleation score was -0.366 ± 0.93. Consider QFGWFWFLNYALQDFDN, for which the amyloid nucleation score was -0.696 ± 0.75. As for QFILRDNVVRRMKFRGVPNF, the amyloid nucleation score worked out at 2.22 ± 0.55. Turning to QFKRKIICQDKSVAFKCNYR, the amyloid nucleation score is -0.493 ± 0.22.

In turn, QFSHCWMSRRSGVNSAGRSG had an amyloid nucleation score of -0.238 ± 0.39.

Substance QFSHNRIMLDQTWKNVVKGL displayed an amyloid nucleation score of -0.001 ± 0.37.

Substance QFVHGRNETIRSFNCPGLAE showed an amyloid nucleation score of -0.007 ± 1.2.

As to QFYVSVFEIYSLLTRKCACR, the amyloid nucleation score entry is “inactive”. QGGRVDGSPPTVYA registered an amyloid nucleation score of 0.555 ± 0.46.

QGHCGTYHSGGSVNRLPHGV returned an amyloid nucleation score of 0.209 ± 0.39. The value for QGIYTD was -0.921 ± 0.78; that for QGLADNKSSFKGV was 0.591 ± 1; that for QGSVSRCISEALTVRCYRTG was “inactive”. The value for QIINKFTSDIVLTD was 0.456 ± 0.38. For QIIWVIRFLLVCVFTLSKLV, the amyloid nucleation score entry is “inactive”.

Regarding QKAAVEQGLSRFGEGVTP, the amyloid nucleation score came out at 0.886 ± 0.66. For QKKSLVRGKGES, the amyloid nucleation score was -0.145 ± 0.48. As to QKLLTSMSVITW, the amyloid nucleation score amounted to 1.81 ± 0.65.

Consider QKLVDLTIRWGYRPLGRCWW, for which the amyloid nucleation score was 0.622 ± 0.97.

Substance QLKCPKNDHVIVWDFCINQL came in with an amyloid nucleation score of 2.28 ± 0.32. The value for QLRHLHSNVLLRDIWLGFKF was -1.01 ± 1.7; that for QLSFYSFCPMATYRSSNSDL was 5.92 ± 0.053. The value for QLTPTLCDRSRCCPGGLFVY was 0.631 ± 0.58; that for QMGELSSYRLFGIRTFRF was -0.02 ± 0.81.

Consider QMRAFSDLFLLSDY, for which the amyloid nucleation score worked out at 0.406 ± 0.46. Take QNDTYLI: the amyloid nucleation score is 0.022 ± 1.1. With QNLVLVKPEVFGTSRLLCGH, the amyloid nucleation score is 0.184 ± 0.53. On to QNPWNGILLAKNWRDKMLRN, for which the amyloid nucleation score is 0.3 ± 0.52. As for QRLGQGIGGEWPTKL, the amyloid nucleation score was found to be 0.995 ± 0.67. QRMLHAYLCVNWAELTHIRV showed an amyloid nucleation score of 0.034 ± 0.6. In turn, QRPLCENRLDYKLGYSTMTF had an amyloid nucleation score of -0.646 ± 1.6. Substance QRVSIRFSVPRGL gave an amyloid nucleation score of 0.312 ± 0.31. As for QSGPSAVY, the amyloid nucleation score came to 0.362 ± 0.64. On to QSLDE, for which the amyloid nucleation score is -0.44 ± 0.28.

The substance QSMSCRAFVVTSRLVHWGTQ gave an amyloid nucleation score of -0.438 ± 0.6. The value for QSSLGNLTCANFWVTTTEVG was “inactive”; that for QSSSYERLKQTGKLSFYIDF was -0.069 ± 0.61. In turn, QSTLGGSKHAWLIENGGFGF registered an amyloid nucleation score of -0.685 ± 1.1. QSVHDTHSCHGSH: the amyloid nucleation score turned out to be 0.5 ± 0.63. As to QTEQMFGRVDIVYLPAIWSS, the amyloid nucleation score was 0.447 ± 0.45.

Substance QTRVCTNDKSSFTLQTGRW returned an amyloid nucleation score of 3.26 ± 0.14. Take QTSLMMWLRR: the amyloid nucleation score entry was “inactive”.

The substance QTTFGLMIFT came in with an amyloid nucleation score of 0.89 ± 0.93. The value for QVALYKVVVYKTWDVGFPSC was 0.988 ± 0.9; that for QVFATRDAQRYLLMHRIDHN was -0.153 ± 1.7; that for QVHIERDVERPYMFLGTAWG was -0.285 ± 0.34. As for QVIEKFVAGCEGQKR, the amyloid nucleation score was found to be 2.31 ± 0.14. In the case of QVKDIGLPMHHACF it was -1.36 ± 1.1.

As to QVRLKEFLYSLKCDVRYGST, the amyloid nucleation score entry is “inactive”. The substance QVTVRM had an amyloid nucleation score of 0.987 ± 0.24.

On to QWAFYVNYLTSRDYFNIFTR, for which the amyloid nucleation score is 1.05 ± 0.16. The value for QWCSRRDMCFRSSVILCLWR was -0.035 ± 0.75.

Regarding QWGTREYGIFLDIFVHVTVN, the amyloid nucleation score stood at 0.237 ± 0.56. Take QYCIHNNFEYDGL: the amyloid nucleation score was -0.98 ± 0.47. Turning to QYCKFPNIRRLRINK, the amyloid nucleation score is -0.393 ± 0.36. QYEALLPLTKKNRTNTWQRQ: the amyloid nucleation score entry was “inactive”. For the substance QYIVW, the amyloid nucleation score was 0.142 ± 0.32. The substance QYNSGLDRMA yielded an amyloid nucleation score of 1.14 ± 0.62. Take QYWVCNKPTLVDYRDTCDRT: the amyloid nucleation score stood at 0.023 ± 0.89.
